According to PMC8635156, “Structural and Functional Analysis of SsaV Cytoplasmic Domain and Variable Linker States in the Context of the InvA-SsaV Chimeric Protein” (Microbiology Spectrum, 2021):

Assays:
[1] = biological target: the molecule itself; test: cryo-EM structure; single particle analysis of the GDN-solubilised chimera ISS (~10 mg/ml); C9 symmetry, 2.11 Å for the SsaVC part; TM and linker regions hardly visible
[2] = biological target: the molecule itself; test: SEC; gel filtration of purified cytoplasmic domains (Superdex 200 Increase 10/300 GL; 20 mM Tris-HCl pH 8.0, 150 mM NaCl); Fig. 1B at two salt concentrations (physiological and high salt); Fig. 4D wild type and variants

B1: InvATM-SsaVL-SsaVC chimeric full-length protein (ISS) (other)
chain: MLLSLLNSARLRPELLILVLMVMIISMFVIPLPTYLVDFLIALNIVLAILVFMGSFYIDRILSFSTFPAVLLITTLFRLALSISTSRLILIEADAGEIIATFGQFVIGDSLAVGFVVFSIVTVVQFIVITKGSERVAEVAARFSLDGMPGKQMSIDADLKAGIIDADAARERRSVLERESQLYGSFDGAMKFIKGDAIAGIIIIFVNFIGGISVGMTRHGMDLSSALSTYTMLTIGDGLVAQIPALLIAISAGFIVTRVNGDSDNMGRNIMTQLLNNPFVLVVTAILTISMGTLPGFPLPVFVILSVVLSVLFYFIRRKKSVVSANGVEAPEKDSMVPGACPLILRLSPTLHSADLIRDIDAMRWFLFEDTGVPLPEVNIEVLPEPTEKLTVLLYQEPVFSLSIPAQADYLLIGADASVVGDSQTLPNGMGQICWLTKDMAHKAQGFGLDVFAGSQRISALLKCVLLRHMGEFIGVQETRYLMNAMEKNYSELVKELQRQLPINKIAETLQRLVSERVSIRDLRLIFGTLIDWAPREKDVLMLTEYVRIALRRHILRRLNPEGKPLPILRIGEGIENLVRESIRQTAMGTYTALSSRHKTQILQLIEQALKQSAKLFIVTSVDTRRFLRKITEATLFDVPILSWQELGEESLIQVVESIDLSEEELADNEE
notes: InvA, Salmonella enterica serovar Typhimurium, transmembrane region: what is left when residues 316-685 are replaced (residues 1-315); SsaV, Salmonella enterica serovar Typhimurium, residues 326-682 (linker SsaVL and cytoplasmic domain SsaVC); Eluted from the Strep-Tactin beads after the SUMO tag was cleaved on the beads; also called InvATM-SsaVC chimera; chimeric ISS; source: E. coli BL21, …
B1 was tested, and the “stoichiometry N” value [1] was 9.

B2: SsaV cytoplasmic domain (SsaVC), residues 346-682 (domain or fragment)
chain: MVPGACPLILRLSPTLHSADLIRDIDAMRWFLFEDTGVPLPEVNIEVLPEPTEKLTVLLYQEPVFSLSIPAQADYLLIGADASVVGDSQTLPNGMGQICWLTKDMAHKAQGFGLDVFAGSQRISALLKCVLLRHMGEFIGVQETRYLMNAMEKNYSELVKELQRQLPINKIAETLQRLVSERVSIRDLRLIFGTLIDWAPREKDVLMLTEYVRIALRRHILRRLNPEGKPLPILRIGEGIENLVRESIRQTAMGTYTALSSRHKTQILQLIEQALKQSAKLFIVTSVDTRRFLRKITEATLFDVPILSWQELGEESLIQVVESIDLSEEELADNEE
notes: SsaV (SctV of the SPI-2 T3SS), Salmonella enterica serovar Typhimurium, residues 346-682 (cytoplasmic domain with the last residues of the linker); The His6 tag is thrombin-cleavable (pET15b); the purification as described names no cleavage step; also called SctVC of SPI-2; source: E. coli BL21, purified (Ni-NTA, Hitrap Q anion exchange, SEC)
In the case of B2, the “stoichiometry N” value [2] is reported as 9.
